# Patent US20230295310A1 (ABCELLERA BIOLOGICS, published 2023)
# Substitutions are numbered along the chain they refer to.
# B1: mAb 140 (antibody, V domains shown)
# VH: QVQLVESGGGVVQPGRSLRLSCAASGFTFSTYGMHWVRQAPGKGLEWVAVIWYDGSHKYYADSVKGRFTISRDNSKNTLYLQMNSLRAEDTAVYYCARTGITGTTAYFYFDYWGQGTLVTVSS
# VL: not shown
# B2: mAb 146 (antibody, V domains shown)
# VH: B1 VH with S30I, T78M, A88V, Y112N
# VL: not shown
# B3: mAb 144 (antibody, V domains shown)
# VH: B1 VH with G10Y, T31N, Y32F
# VL: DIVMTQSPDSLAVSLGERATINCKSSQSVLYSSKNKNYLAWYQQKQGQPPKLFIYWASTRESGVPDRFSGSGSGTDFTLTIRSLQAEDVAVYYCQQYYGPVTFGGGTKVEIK
# B4: mAb 167 (antibody, V domains shown)
# VH: EVHLVESGGGLVQPGRSLRLSCAASGFTFDDYAMHWVRQAPGKGLEWVSGISWNSGTIGYADSVKGRFTISRDNAKNSLYLEMNSLRAEDTALYYCAKDSSGYGHYYHYYIDVWGTGTTVTVSS
# VL: EIVMTQSPATLSVSPGGRATLSCRASQSVGSNLAWYQQKPGQAPRLLIYDASTRATGIPARFRGSGSGTEFTLTISGLQSEDFAVYYCQLYYNWPHFGQGTRLEIK
# B5: mAb 43 (antibody, V domains shown)
# VH: QAQLVQSGSELKKPGASVKVSCKASGYTFTKHSMNWVRQAPGQGLEWMGWINTNTGNPMYAQGFTGRFVFSLDTSVTTAYLQISSLKAEDTAVYYCAREGDYDFWSGFFNFDYWGQGTLVTVSS
# VL: DIQMTQSPSSLSASVGDRVTITCRASQGIRNDLGWYQQKPGKAPKRLIYAASSLQSGVPSRFSGSGSGAEFTLTISSLQPEDFATYYCLQHNSYPRTFGQGTKVEIK
# B6: mAb 161 (antibody, V domains shown)
# VH: EVQLVESGGGLVQPGRSLRLSCAASGITFADYTMHWVRQAPGKGLEWVSGISWNSGSIDYADSVKGRFTISRDNAKKTLYLQMNRLRAEDTALYYCAKDSSGYGHYYFYYLDVWGKGTTVTVSS
# VL: EIVMTQSPATLSVSPGERATLSCRASQSVSNNLAWYQQKPGQAPRLLIYSTSTRATGIPARFSGSRSGTEFTLTISSLQSEDSAVYYCQQYNNWPHFGQGTRLEIK
# B7: mAb 68 (antibody, V domains shown)
# VH: EVQLVDSGGGLVQPGGSLRLSCSGSGFTFSSYWMSWVRQAPGKGLEWVANIKQDGSQKYYVDSVKGRFTISRDNVKNSLYLQMNSLRVEDTAVYYCARDESSSWYWYFDLWGRGTLVTVSS
# VL: DIQMTQSPSTLSASVGDRVTLTCRASQNIVKWLAWYQQKPGKAPKLLIYKASSLESGVPSWFSGSGSGTEFTLTINSLQPDDFATYYCQQYYTYSRTFGQGTKVEIK
# B8: mAb 77 (antibody, V domains shown)
# VH: EVQLVESGGGLVQPGGSLRLSCAASGFTFSNYWMSWVRQAPGKGLEWVANIKQDGSEKYYVDSVRGRFTISRDNAKKSLYLQMNSLRAEDTAVYYCARDNSNYAYWYFDIWGRGTLVTVSS
# VL: B7 VL with A13V, L21I, N28S, V30R, Y49F, W61R, N76S, Y92D
# B9: mAb 141 (antibody, V domains shown)
# VH: QVQLVQSGAEVKKPGASVKVSCKASGYTFTSYYIHWVRQAPGQGLDWMGIINPSGGITGYAQKLQGRVTMTRDTSTTTVYMELSSLRSDDTAVYYCARGVRGNYYYYYMDVWGKGTTVTVSS
# VL: EIVLTQSPDFQSVTPKEKVTITCRASQSIGSKLHWYQQKPDQSPKLLIKYASQSFSGVPSRFSGSGSGTDFNLTINSLEAEDAATFYCHQSSGLPYTFGQGTKLEIK
# B10: mAb 145 (antibody, V domains shown)
# VH: B9 VH with S31N, L64F
# VL: B9 VL with Y50F, A80P
# B11: mAb 142 (antibody, V domains shown)
# VH: B1 VH with T31S, H57N, Y112S
# VL: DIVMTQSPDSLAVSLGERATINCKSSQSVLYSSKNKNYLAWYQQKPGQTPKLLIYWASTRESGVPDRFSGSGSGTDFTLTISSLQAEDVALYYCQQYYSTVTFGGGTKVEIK
# B12: mAb 146 (antibody, V domains shown)
# VH: B1 VH with S30I, T78M, A88V, Y112N
# VL: not shown
# B13: mAb 137 (antibody, V domains shown)
# VH: B1 VH with N77K, A92G, V93I, T102S, T104N, T105M, A106S, Y112H, T117I
# VL: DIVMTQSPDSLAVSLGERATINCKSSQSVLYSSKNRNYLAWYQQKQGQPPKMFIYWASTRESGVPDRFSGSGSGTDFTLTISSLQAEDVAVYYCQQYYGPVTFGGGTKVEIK
# B14: mAb 140 (antibody, V domains shown)
# VH: B1 VH
# VL: not shown
# B15: mAb 153 (antibody, V domains shown)
# VH: B1 VH with A61S, A88V, V93I, Y112S
# VL: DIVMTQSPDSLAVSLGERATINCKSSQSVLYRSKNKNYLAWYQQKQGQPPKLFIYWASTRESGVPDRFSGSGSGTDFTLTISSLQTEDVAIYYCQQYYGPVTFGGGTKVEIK
# B16: mAb 42 (antibody, V domains shown)
# VH: B5 VH with M59T
# VL: B5 VL
# B17: mAb 50 (antibody, V domains shown)
# VH: B5 VH with K31R, S33A, M59T
# VL: B5 VL with Y36F, K45T
# B18: mAb 49 (antibody, V domains shown)
# VH: EVQLVESGGGLVPPGGSLRLSCVASGFTLRSYTMNWVRQAPGQGLEWISYISSTSRTIYYSDSVKGRFTISRDNAKNSLYLQVNSLRDEDTALYYCAREDYYDSSGFDCWGQGTLVTVSS
# VL: AIRMTQSPSSFSASTGDRVTITCRASQGIFNYLAWYQQKPGKAPKLLIYSTSTLQSGVPSRFSGSGSGTDFTLTIRGLQSEDLATYYCQQYYSFPRTFGQGTKVDIK
# B19: mAb 131 (antibody, V domains shown)
# VH: EVQLVESGGGLVKTGGSLRISCVASGFSFKKAWMNWVRQAPGKGLEWVGRIKRNTDGGTIDYAAPVKGRFSLSRDDSKNTLFLQMNSLKTEDTAVYFCTTLDSSSYYVGYYYMDVWGKGTTVTVSS
# VL: DIHMTQSPSSVSASVGDRVTITCRASQDINNWLAWYQQKPGKAPKLLIYTASSLQSGVPSRFSGSGSGTDFTLTISSLQPEDFATYFCQQAHSLPITFGQGTRLGIK
# B20: mAb 133 (antibody, V domains shown)
# VH: B19 VH with I20L, N35S, I60A, S71T, N79K, T93S, F97Y, T99V
# VL: B19 VL with H3Q, T20S, S76G, F87Y, G105E
# B21: mAb 156 (antibody, V domains shown)
# VH: B19 VH with I20L, I60A, S71T, N79K, F97Y
# VL: B19 VL with H3Q, T20I, P40A, S76G, F87Y, G105E
# B22: mAb 155 (antibody, V domains shown)
# VH: B19 VH with I20L, I60A, S71T, N79K, F97Y
# VL: B19 VL with H3Q, T20I, S76G, F87Y, T97S, G105D
# B23: mAb 132 (antibody, V domains shown)
# VH: DVQLVESGGGTVKTGGSLRLSCVASGFSFKKAWMNWVRQAPGKGLEWVGRIKKNSDGGTADYAAPVKGRFTISRDDSKKTLYLQMNSLQTEDTAVYYCTTLDSSSWYVGYYYMDVWGKGTTVTVSS
# VL: B19 VL with H3Q, T20I, K42I, G68V, T69S, S76G, F87Y, G105E
# Target: T1, human CD3 expressed on cells (human, UniProt P07766 23-207; P04234 22-171; P09693 23-182)
# T1 construct: whole, on cells; CD3 complex on Jurkat cells and on human primary T cells
# T1 sequence (P07766 23-207, chain 1 of 3): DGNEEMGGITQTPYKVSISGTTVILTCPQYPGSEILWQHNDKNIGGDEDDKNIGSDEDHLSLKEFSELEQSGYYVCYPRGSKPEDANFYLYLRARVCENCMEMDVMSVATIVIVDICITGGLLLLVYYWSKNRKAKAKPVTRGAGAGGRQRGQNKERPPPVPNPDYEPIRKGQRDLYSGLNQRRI
# T1 sequence (P04234 22-171, chain 2 of 3): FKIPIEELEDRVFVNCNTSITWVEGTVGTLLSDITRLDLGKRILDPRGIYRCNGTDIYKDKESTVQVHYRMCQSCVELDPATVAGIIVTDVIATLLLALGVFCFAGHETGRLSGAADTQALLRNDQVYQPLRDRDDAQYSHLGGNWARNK
# T1 sequence (P09693 23-182, chain 3 of 3): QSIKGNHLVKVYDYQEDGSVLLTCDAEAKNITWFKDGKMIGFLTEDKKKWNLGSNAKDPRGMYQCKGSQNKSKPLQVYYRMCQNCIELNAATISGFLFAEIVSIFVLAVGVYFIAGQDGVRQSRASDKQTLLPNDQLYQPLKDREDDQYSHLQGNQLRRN
# Assay: flow cytometry, 25 nM
# Procedure: Purified antibodies were confirmed to bind CD3 expressed on cells using the CytoFLEX S or LX flow cytometers (Beckman Coulter). Antibodies were diluted to 25 nM in FACS buffer (PBS+2% FBS) and were incubated with CD3-expressing cells for 30 minutes at 4° C. […] The median fluorescence intensity of the binding signal for each antibody was normalized to the isotype control to obtain a fold over isotype value. An antibody with a fold over isotype (FOI) of ≥10 was considered to be positive for binding.
Human primary T Cell Binding (FOI),Jurkat Cell Binding (FOI),Binder
148,135,B1
340,194,B2
157,139,B3
167,124,B4
83.3,108,B5
170,106,B6
117,113,B7
125,106,B8

# Target: human CD3 (human, UniProt P07766 23-207; P04234 22-171; P09693 23-182)
# Sequence (P07766 23-207, chain 1 of 3): as the sequence (P07766 23-207, chain 1 of 3) above
# Sequence (P04234 22-171, chain 2 of 3): as the sequence (P04234 22-171, chain 2 of 3) above
# Sequence (P09693 23-182, chain 3 of 3): as the sequence (P09693 23-182, chain 3 of 3) above
# Assay: cell-based or functional assay
"CD4 EC50 (nM); CD69/CD25 on human T cells, plate-coated antibody [nM]","CD8 EC50 (nM); CD69/CD25 on human T cells, plate-coated antibody [nM]",Binder
22.1,22.8,B9
13.3,14.9,B10
26.9,32,B11
12.5,12.6,B12
13.1,14.1,B13
13.7,17.8,B14
8.76,8.56,B15
25.4,25.5,B16
26.3,24.5,B17
6.76,6.65,B18
13.3,13.3,B19
13.9,13.6,B20
6.25,6.25,B21
6.25,6.29,B22
6.39,6.34,B23
